These results are taken from publication PMC9291269.

The target of assay [1] is SAA1 secreted by BEAS-2B cells (lipid-free, in culture supernatant) (human (endogenous in BEAS-2B)). The experiment in a line: immunoblot of HDL-depleted cell culture supernatants.
For assay [2] the target is unchanged. The assay is described as above. The source holds these as a separate data set.
Assay [3] concerns the target T1, recombinant human serum amyloid A1 (rSAA1) (human), P0DJI8.
T1 chain: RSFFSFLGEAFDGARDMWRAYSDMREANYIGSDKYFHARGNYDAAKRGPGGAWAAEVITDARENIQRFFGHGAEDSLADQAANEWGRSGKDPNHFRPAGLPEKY
The experiment in a line: immunoblot of cell culture supernatants. To be noted: remark: other sources report otherwise. For orientation: A western blot detects proteins with antibodies after separation by electrophoresis.

For assay [4], the target named is T1, recombinant human serum amyloid A1 …. The experiment in a line: immunoblot of cell culture supernatants. To be noted: remark: other sources report otherwise.

Read-outs that look alike come from different tables or passages of the source.

A word on the stoichiometry N: it is a count of units in the complex or per binding partner.

For the molecule “SAA1 secreted by BEAS-2B cells (lipid-free, in culture supernatant) (natural protein)”, the results for the stoichiometry N in assay [1] and in assay [2] were 2 and 6, respectively.

B1: recombinant human serum amyloid A1 (rSAA1), P0DJI8 19-122 (natural protein)
chain: T1 chain
For B1, the stoichiometry N in assay [3] was determined as 6; in assay [4], 2.
